According to US6861578B1, “Method for plant protection against insects or nematodes by transformation with a nucleic acid encoding equistatin” (Plant Research International B.V., priority 1997, dated 2005):
Where two headings read alike, the source gives them in different places. Where a SMILES comes first, the peptide text is derived from it. [ ]: non-standard residue; d: D form. The star is where a group is joined. Sta = CC(C)C[C@H](N)[C@@H](O)CC(=O)O; Isovaleryl = CC(C)CC(=O)*

Tests used:
thrips protease activity = test: Protease activity of adult western flower thrips extract, FITC-hemoglobin; assay type: biochemical, Frankliniella occidentalis; design: inhibition of protease activity: concentration or dose not given beside the values; settings: for residual protease activity: thrips pH 3.5, equistatin purified from sea anemone; for inhibition of protease activity: thrips, pH 3.5
Procedure: (§1) Adult western flower thrips (Frankliniella occidentalis) and leafmirer flies (Liriomyza trifolii) adult were harvested from a culture maintained on chrysanthemum plants and complete thrips and flies were homogenized in extraction on buffer (200 mM β-alanine-HCl, pH 3.5) in a volume of 5 times the weight of the insects. The buffer pH was at the previously determined pH optimum of protease activity towards hemoglobin. Final instar Colorado potato beetle larvae maintained on potato plants as described in example 5 were checked for gut aspartic protease activity by preparing a total gut extract in pH 3 buffer which is optimal for Colorado potato beetle aspartic proteases (200 mM glycine, pH 3). Guts were homogenized in 100 μl buffer per gut. Third instar western corn rootworm larvae maintained on corn roots were used to remove the guts. Ten guts were homogenized in 100 μl water and spinned twice to remove insoluble material. Two types of buffers were used in the enzymatic assay. One with a pH presumably favoring cysteine proteases (50 mM MES, pH 6.5; 0.6 mg/ml L-cysteine) and one for detecting aspartic proteases (200 mM glycine, pH 3). Supernatants were stored at −20° C.
(§2) 2 μl gut extract was combined with 2 μl inhibitor (2 mM pepstatin in methanol, 4 mM E64 in water, 2 mg/ml recombinant equistatin in water. The concentration of the other proteinaceous inhibitors was not known exactly). Appropriate buffers were added to a final volume of 100 μl. After 15′ preincubation 20 μl substrate (5 mg/ml FITC-hemoglobin) was added and incubated for 30-45 min at 37 C.
(§3) Reaction was stopped by the addition of 100 μl 10% TCA. Tubes were centrifuged and 100 μl supernatant mixed with 100 μl 10 N NaOH was measured on a fluorimeter for the extent of hemoglobin hydrolysis. Measurements were done in duplicate on one (thrips, leafminer and western corn rootworm), or three (Colorado potato beetle) different gut extracts and varied by a maximum of +/−5%.

leafminer proteases = test: Protease activity of adult leafminer fly extract, FITC-hemoglobin; assay type: biochemical, Liriomyza trifolii; settings: for residual protease activity: leafminer pH 3.5, equistatin purified from sea anemone
Procedure: as §1, §2, §3

[1] = system: western corn rootworm cysteine and aspartic protease activity; test: Protease activity of western corn rootworm larval gut extract, FITC-hemoglobin; assay type: biochemical, Diabrotica virgifera; settings: recombinant equistatin
Procedure: as §1, §2, §3

[2] = system: Colorado potato beetle proteases; test: Protease activity of Colorado potato beetle larval gut extract at pH 3, FITC-hemoglobin; assay type: biochemical, Leptinotarsa decemlineata; design: inhibition of total protease activity / increase of inhibition by addition of equistatin to E64 / increase of inhibition by addition of equistatin to pepstatin: concentration or dose not given beside the values; settings: for inhibition of total protease activity: Colorado potato beetle, pH3; for residual protease activity: colorado potato beetle pH 3, recombinant equistatin
Procedure: as §1, §2, §3

[3] = molecular target: proteases in extracts of adult leafminer flies (Liriomyza trifolii); test: cell-based or functional assay
[4] = molecular target: proteases in extracts of adult western flower thrips (Frankliniella occidentalis); test: cell-based or functional assay
[5] = molecular target: potato protease inhibitor-insensitive cysteine proteases of Colorado potato beetle (Leptinotarsa decemlineata) larval gut extracts; test: cell-based or functional assay
cysteine proteases = settings: Yamashita and Konagaya (1996); cited from earlier work
[6] = system: amino-peptidase activity of Colorado potato beetle larval gut extracts; test: Amino-peptidase activity of Colorado potato beetle gut extract, L-Arg-pNA; assay type: biochemical, Leptinotarsa decemlineata
Excerpt: (§4) Guts of final instar Colorado potato beetle larvae reared on methyl jasmonate induced plants were isolated and extracted essentially as described (Bolter and Jongsma, J. Insect Physiol. 41: 1071-1078). In these gut extracts the proteases that are sensitive to the protease inhibitors of potato are already complexed. The residual protease activity is composed of potato protease-inhibitor-insensitive proteases which were induced in response to the methyl jasmonate induced potato inhibitors. These proteases are the proteases that render the beetle larvae insensitive to protease inhibitor defense of the potato plant. Wle tested a broad range of different cysteisie protease inhibitors for activity specifically against these induced potato protease inhibitor-insensitive cysteine protesses. Nearly all of these inhibitors were purified at the Jozef Stefan Institute in Slovenia. Testing their potential against Colorado potato beetle was done using both general protein substrates (azocasein, table 2) as well as specific synthetic substrates (L-Arg-pNA, table 3; pGlu-Phe-Leu-pNA, table 4; Z-Phe-Arg-pNA, table 5; Z-Arg-Arg-pNA, table 6). In specific cases inhibitors were tested at two concentrations, eauimolar and in excess to the protease, in order to obtain an indication of the tightness of the complex. […] Importantly, this class of inhibitors was capable of inhibiting nearly all general cysteine protease activity. The equistatin peptide molecule and a functional derivative thereof were not very active against the aminopeptidase-like cysteine protease activity. […] The best combination of inhibitors for full toxicity against the Colorado potato beetle would therefore be a combination of equistatin or p41 invariant chain fragment and stefin-like inhibitors.

[7] = system: endoprotease activity of Colorado potato beetle larval gut extracts; test: Narrow spectrum endoprotease activity of Colorado potato beetle gut extract, Z-Arg-Arg-pNA; assay type: biochemical, Leptinotarsa decemlineata; settings: excess inhibitor
Excerpt: as §4

[8] = system: tri-peptidil-peptidase and endoprotease activity of Colorado potato beetle larval gut extracts; test: Tri-peptidil-peptidase and endoprotease activity of Colorado potato beetle gut extract, pGlu-Phe-Leu-pNA; assay type: biochemical, Leptinotarsa decemlineata
Excerpt: as §4

[9] = system: Colorado potato beetle larval gut extracts (potato protease inhibitor-insensitive cysteine proteases); test: General proteolytic activity of Colorado potato beetle larval gut extracts, azocasein; assay type: biochemical, Leptinotarsa decemlineata
Excerpt: as §4

[10] = system: endoprotease activity of Colorado potato beetle larval gut extracts; test: Broad spectrum endoprotease activity of Colorado potato beetle gut extract, Z-Phe-Arg-pNA; assay type: biochemical, Leptinotarsa decemlineata
Excerpt: as §4

cathepsin D [11] = molecular target: T1, cathepsin D (Homo sapiens, UniProt P07339); test: steady state inhibition of cathepsin D hydrolysis of chromophoric substrate
papain [12] = molecular target: T2, papain (UniProt P00784 134-345); test: continuous rate enzyme inhibition assay with papain; Ki = kd/ka
T2 construct: also called cysteine proteinase, papain
T2 sequence (looked up): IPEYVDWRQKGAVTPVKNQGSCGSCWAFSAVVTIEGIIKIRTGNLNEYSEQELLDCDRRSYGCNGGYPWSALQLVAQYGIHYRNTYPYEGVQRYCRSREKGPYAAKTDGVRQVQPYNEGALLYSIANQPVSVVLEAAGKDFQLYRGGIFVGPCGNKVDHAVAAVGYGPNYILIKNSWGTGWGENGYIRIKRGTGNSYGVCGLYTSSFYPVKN

papain [13] = molecular target: T2, papain; test: continuous rate enzyme inhibition assay with papain
cathepsin D [14] = molecular target: T1, cathepsin D; test: steady state inhibition of cathepsin D hydrolysis of chromophoric substrate; remark: listed apart in the source

CC(C)C[C@H](NC(=O)[C@H]1O[C@@H]1C(=O)O)C(=O)NCCCCN=C(N)N (relative stereo) [E64, N-(L-3-trans carboxyoxiran-22-carbomyl)-L-leucyl-amido-4-guani-dobutane, reference compound]
residual protease activity (thrips protease activity): 8% | inhibition of protease activity (thrips protease activity): 92% | inhibition of protease activity (leafminer proteases; leafminer): 73% | residual protease activity (leafminer proteases): 27% | residual protease activity ([1]; western corn rootworm pH 3): 35% | residual protease activity ([1]; western corn rootworm pH 6.5): 51% | inhibition of total protease activity [2]: 24% | residual protease activity [2]: 76%

p41 invariant chain fragment (from UniProt P04233 194-258)
residual protease activity (FITC-hemoglobin), pH 3.5 (% residual activity) [3]: 43 | residual protease activity (FITC-hemoglobin), pH 3.5 (% residual activity) [4]: 13 | residual amino-peptidase activity (L-Arg-pNA), equimolar inhibitor (% of residual activity) [5]: 85 | residual amino-peptidase activity (L-Arg-pNA), excess inhibitor (% of residual activity) [5]: 75 | residual broad spectrum endoprotease activity (Z-Phe-Arg-pNA), equimolar inhibitor (% of residual activity) [5]: 30 | residual broad spectrum endoprotease activity (Z-Phe-Arg-pNA), excess inhibitor (% of residual activity) [5]: 20 | residual general proteolytic activity (azocasein) in excess of inhibitor (% residual activity) [5]: 10 | residual narrow spectrum endoprotease activity (Z-Arg-Arg-pNA), equimolar inhibitor (% of residual activity) [5]: 20 | residual narrow spectrum endoprotease activity (Z-Arg-Arg-pNA), excess inhibitor (% of residual activity) [5]: -5 | residual tri-peptidil-peptidase and endoprotease activity (pGlu-Phe-Leu-pNA), equimolar inhibitor (% of residual activity) [5]: 10 | residual tri-peptidil-peptidase and endoprotease activity (pGlu-Phe-Leu-pNA), excess inhibitor (% of residual activity) [5]: -5

bean cystatin
residual protease activity (FITC-hemoglobin), pH 3.5 (% residual activity) [4]: 14

thyroglobulin: protein containing type I repeated thyroglobulin domains [reference compound]
inhibition of cysteine proteases (cysteine proteases): do not inhibit

CC(C)CC(=O)N[C@H](C(=O)N[C@H](C(=O)N[C@@H](CC(C)C)[C@@H](O)CC(=O)N[C@@H](C)C(=O)N[C@@H](CC(C)C)[C@@H](O)CC(=O)O)C(C)C)C(C)C [Pepstatin, reference compound] (Isovaleryl-VV[Sta]A[Sta]-OH)
residual protease activity (thrips protease activity): 84% | inhibition of protease activity (thrips protease activity): 16% | residual protease activity (leafminer proteases): 46% | residual protease activity ([1]; western corn rootworm pH 3): 45% | residual protease activity ([1]; western corn rootworm pH 6.5): 58% | inhibition of total protease activity [2]: 82% | residual protease activity [2]: 18%

B1: human stefin A: Type I cystatin (protein, UniProt P01040 1-98, looked up)
Cystatin-A: MIPGGLSEAKPATPEIQEIVDKVKPQLEEKTNETYGKLEAVQYKTQVVAGTNYYIKVRAGDNKYMHLKVFKSLPGQNEDLVLTGYQVDKNKDDELTGF
% of residual activity, equimolar ([6]; equimolar): 60% | % of residual activity, excess inhibitor ([6]; excess inhibitor): 10% | % of residual activity, excess inhibitor [7]: 90% | % of residual activity, equimolar ([8]; equimolar): 95% | % of residual activity, excess inhibitor ([8]; excess inhibitor): 90% | Residual activity in excess of inhibitor [9]: 90% | % of residual activity, equimolar ([10]; equimolar): 95% | % of residual activity, excess inhibitor ([10]; excess inhibitor): 80%

B2: first domain of equistatin (eq d-1) (protein)
chain: SLTLCGGLGASAASGLIGTTVPGCLGTGGPGGLGCTGSTGTCTCVAGAGLGILGTLIAGSPACSAAL
Ki (cathepsin D [11]): > 1 µM | Ki (papain [12]): 0.00061 µM | koff (papain [13]): 0.0011 s⁻¹ | kon (papain [13]): 1.8e+06 M⁻¹ s⁻¹ | Ki (cathepsin D [14]): 1000 µM

B3: entactin: protein with domains homologous to type I repeated thyroglobulin domains (protein, UniProt P14543 29-1247, looked up)
Nidogen-1: LSRQELFPFGPGQGDLELEDGDDFVSPALELSGALRFYDRSDIDAVYVTTNGIIATSEPPAKESHPGLFPPTFGAVAPFLADLDTTDGLGKVYYREDLSPSITQRAAECVHRGFPEISFQPSSAVVVTWESVAPYQGPSRDPDQKGKRNTFQAVLASSDSSSYAIFLYPEDGLQFHTTFSKKENNQVPAVVAFSQGSVGFLWKSNGAYNIFANDRESVENLAKSSNSGQQGVWVFEIGSPATTNGVVPADVILGTEDGAEYDDEDEDYDLATTRLGLEDVGTTPFSYKALRRGGADTYSVPSVLSPRRAATERPLGPPTERTRSFQLAVETFHQQHPQVIDVDEVEETGVVFSYNTDSRQTCANNRHQCSVHAECRDYATGFCCSCVAGYTGNGRQCVAEGSPQRVNGKVKGRIFVGSSQVPIVFENTDLHSYVVMNHGRSYTAISTIPETVGYSLLPLAPVGGIIGWMFAVEQDGFKNGFSITGGEFTRQAEVTFVGHPGNLVIKQRFSGIDEHGHLTIDTELEGRVPQIPFGSSVHIEPYTELYHYSTSVITSSSTREYTVTEPERDGASPSRIYTYQWRQTITFQECVHDDSRPALPSTQQLSVDSVFVLYNQEEKILRYALSNSIGPVREGSPDALQNPCYIGTHGCDTNAACRPGPRTQFTCECSIGFRGDGRTCYDIDECSEQPSVCGSHTICNNHPGTFRCECVEGYQFSDEGTCVAVVDQRPINYCETGLHNCDIPQRAQCIYTGGSSYTCSCLPGFSGDGQACQDVDECQPSRCHPDAFCYNTPGSFTCQCKPGYQGDGFRCVPGEVEKTRCQHEREHILGAAGATDPQRPIPPGLFVPECDAHGHYAPTQCHGSTGYCWCVDRDGREVEGTRTRPGMTPPCLSTVAPPIHQGPAVPTAVIPLPPGTHLLFAQTGKIERLPLEGNTMRKTEAKAFLHVPAKVIIGLAFDCVDKMVYWTDITEPSIGRASLHGGEPTTIIRQDLGSPEGIAVDHLGRNIFWTDSNLDRIEVAKLDGTQRRVLFETDLVNPRGIVTDSVRGNLYWTDWNRDNPKIETSYMDGTNRRILVQDDLGLPNGLTFDAFSSQLCWVDAGTNRAECLNPSQPSRRKALEGLQYPFAVTSYGKNLYFTDWKMNSVVALDLAISKETDAFQPHKQTRLYGITTALSQCPQGHNYCSVNNGGCTHLCLATPGSRTCRCPDNTLGVDCIEQK
inhibition of cysteine proteases (cysteine proteases): do not inhibit

B4: combined second and third domain of equistatin (eq d-2,3) (protein)
chain: AALTLCGMMGAIIVAVPGTCGPPSCLAAGSPAGVGCCASAGGCTCVALLGLGLGGTAGGGAPTCGAHLSGCGGAAILAHSASLAVGMPVPGCLGAGSTAPVGCTPSTGTCTCVAGGGVLVPGSAVAPLAPTC
Ki (cathepsin D [11]): 0.0004 µM | Ki (papain [13]): > 1 µM | Ki (cathepsin D [14]): > 0.0006 µM
